Reference: US20240410900A1 (Hoffmann-La Roche, published 2024)

What was measured:
[1] = target: T1, anti-P-Selectin antibody (IgG4 subclass with mutations S228P/L235E); assay: ELISA assay B, tracer M1.7.10-Dig, target 100 ng/mL
T1 construct: Positions are EU numbers; also called sample 4; antibody 4
Description: (§1) Biotinylated anti-PG Fc-region antibody or biotinylated anti-AAA Fc-region antibody, respectively, was bound to the wells of a streptavidin-coated multi-well plate (SA-MTP) to produce a capture plate. Excess of unbound antibody was removed by washing. Sample/standard antibodies spiked in human and cynomolgus monkey serum (10% final concentration) was added to wells of the SA-MTP multi-well plate coated with the capture plate and incubated for 1 hour at room temperature. After washing, the wells were incubated with digoxygenylated anti-human kappa antibody M1.7.10 (see e.g. WO 2011/048043, incorporated herein by reference). After washing the bound digoxygenylated anti-human kappa antibody complex was incubated with a horseradish peroxidase (HRP) labelled anti-digoxygenin antibody. After another washing step, an ABTS solution was added to the wells and incubated. The product of the color reaction was measured by Elisa reader at 405 nm wavelength (reference wavelength: 490 nm). Absorbance values of each sample or standard were determined in triplicates.

[2] = target: T2, anti-VEGF/ANG2 antibody (wild-type IgG1 subclass) (UniProt P01857-1 1-330 = IgG part); assay: as above
T2 construct: also called sample 5; antibody 5
Description: as §1

[3] = target: T3, anti-VEGF/ANG2 antibody (IgG1 subclass with mutations P329G/L234A/L235A); assay: as above
T3 construct: Positions are EU numbers; also called sample 2; antibody 2
Description: as §1

[4] = target: T4, anti-IGF-1R antibody (IgG1 subclass with mutations I253A/H310A/H435A); assay: as above
T4 construct: Positions are EU numbers; also called sample 3; antibody 3
Description: as §1

[5] = target: T5, anti-VEGF/ANG2 antibody (IgG1 subclass with mutations P329G/L234A/L235A/I253A/H310A/H435A); assay: as above
T5 construct: Format of the bispecific antibody not described; Positions are EU numbers, not positions on the UniProt entry; also called sample 1; antibody 1
Description: as §1

[6] = target: T1, anti-P-Selectin antibody (IgG4 subclass …); assay: ELISA assay C, tracer FcγRI-Dig, target 2 ng/mL
[7] = target: T2, anti-VEGF/ANG2 antibody (wild-type IgG1 …); assay: ELISA assay C, tracer FcγRI-Dig, target 2 ng/mL
[8] = target: T3, anti-VEGF/ANG2 antibody (IgG1 subclass …); assay: ELISA assay C, tracer FcγRI-Dig, target 2 ng/mL
[9] = target: T4, anti-IGF-1R antibody (IgG1 subclass …); assay: ELISA assay C, tracer FcγRI-Dig, target 2 ng/mL
[10] = target: T5, anti-VEGF/ANG2 antibody (IgG1 subclass …); assay: ELISA assay C, tracer FcγRI-Dig, target 2 ng/mL
[11] = target: T3, anti-VEGF/ANG2 antibody (IgG1 subclass …); assay: ELISA assay C, tracer FcγRI-Dig, target 3 ng/mL
[12] = target: T4, anti-IGF-1R antibody (IgG1 subclass …); assay: ELISA assay C, tracer FcγRI-Dig, target 3 ng/mL
[13] = target: T5, anti-VEGF/ANG2 antibody (IgG1 subclass …); assay: ELISA assay C, tracer FcγRI-Dig, target 3 ng/mL
[14] = target: T1, anti-P-Selectin antibody (IgG4 subclass …); assay: ELISA assay B, tracer M1.7.10-Dig, target 6 ng/mL
Description: as §1

[15] = target: T2, anti-VEGF/ANG2 antibody (wild-type IgG1 …); assay: ELISA assay B, tracer M1.7.10-Dig, target 6 ng/mL
Description: as §1

[16] = target: T3, anti-VEGF/ANG2 antibody (IgG1 subclass …); assay: ELISA assay B, tracer M1.7.10-Dig, target 6 ng/mL
Description: as §1

[17] = target: T4, anti-IGF-1R antibody (IgG1 subclass …); assay: ELISA assay B, tracer M1.7.10-Dig, target 6 ng/mL
Description: as §1

[18] = target: T5, anti-VEGF/ANG2 antibody (IgG1 subclass …); assay: ELISA assay B, tracer M1.7.10-Dig, target 6 ng/mL
Description: as §1

[19] = target: T1, anti-P-Selectin antibody (IgG4 subclass …); assay: ELISA assay B, tracer M1.7.10-Dig, target 50 ng/mL
Description: as §1

[20] = target: T2, anti-VEGF/ANG2 antibody (wild-type IgG1 …); assay: ELISA assay B, tracer M1.7.10-Dig, target 50 ng/mL
Description: as §1

[21] = target: T3, anti-VEGF/ANG2 antibody (IgG1 subclass …); assay: ELISA assay B, tracer M1.7.10-Dig, target 50 ng/mL
Description: as §1

[22] = target: T4, anti-IGF-1R antibody (IgG1 subclass …); assay: ELISA assay B, tracer M1.7.10-Dig, target 50 ng/mL
Description: as §1

[23] = target: T5, anti-VEGF/ANG2 antibody (IgG1 subclass …); assay: ELISA assay B, tracer M1.7.10-Dig, target 50 ng/mL
Description: as §1

B1: anti-AAA variant Fc-region antibody M1.6.22 (antibody, V domains shown)
VH: EVQLVESGGDLVKPGGSLKLSCAASGFTFSSYGMSWVRQTPDKRLEWVATISSGGSYIYYPDSVKGRFTISRDNAKNTLYLQMSSLKSEDTAMYYCARLGMITTGYAMDYWGQGTSVTVSS
VL: DVLMTQTPLSLPVSLGDQASISCRSSQTIVHSTGHTYLEWFLQKPGQSPKLLIYKVSNRFSGVPDRFSGSGSGTDFTLKISRVEAEDLGVYYCFQGSHVPYTFGGGTKLEIK
notes: Murine variable domains; also called M1.6.22-Bi
[1]
  signal [OD405 nm]: 0.051 OD405 nm
[2]
  signal [OD405 nm]: 0.061 OD405 nm
[3]
  signal [OD405 nm]: 0.21 OD405 nm
[4]
  signal [OD405 nm]: 2.9 OD405 nm
[5]
  signal [OD405 nm]: 0.052 OD405 nm
[6]
  signal [OD405 nm]: 0.067 OD405 nm
[7]
  signal [OD405 nm]: 0.077 OD405 nm
[8]
  signal [OD405 nm]: 0.072 OD405 nm
[9]
  signal [OD405 nm]: 0.082 OD405 nm
[10]
  signal [OD405 nm]: 0.077 OD405 nm
[11]
  signal [OD405 nm]: 0.068 OD405 nm
[12]
  signal [OD405 nm]: 0.083 OD405 nm
[13]
  signal [OD405 nm]: 0.066 OD405 nm
[14]
  signal [OD405 nm]: 0.04 OD405 nm
[15]
  signal [OD405 nm]: 0.039 OD405 nm
[16]
  signal [OD405 nm]: 0.053 OD405 nm
[17]
  signal [OD405 nm]: 2.73 OD405 nm
[18]
  signal [OD405 nm]: 0.039 OD405 nm
[19]
  signal [OD405 nm]: 0.047 OD405 nm
[20]
  signal [OD405 nm]: 0.049 OD405 nm
[21]
  signal [OD405 nm]: 0.127 OD405 nm
[22]
  signal [OD405 nm]: 2.9 OD405 nm
[23]
  signal [OD405 nm]: 0.05 OD405 nm

B2: anti-PG variant Fc-region antibody M1.3.17 (antibody, V domains shown)
VH: EVKLLESGGGLVQPGGSLKLSCAASGIDFRRYWMNWVRQAPGKGLEWIGEIDPDSSTINYTPSLKDKFIISRDNAKNTMYLQMRKVRSEDTALYYCARPYDYGAWFAYWGQGTLVTVSA
VL: QAVVTQESALTTSPGETVTLTCRSTTGAVTTSNYANWVQEKPDHLFTGLIGGTNKRAPGVPARFSGSLIGDKAALTITGAQTEDEAIYFCALWYSDHWVFGGGTKLTVL
notes: Monomeric, bivalent full-length antibody with murine variable domains; Biotinylated when used as capture antibody; also called anti-PG antibody clone 1.3.17; M1.3.17-Bi
[1]
  signal [OD405 nm]: 0.048 OD405 nm
[2]
  signal [OD405 nm]: 0.043 OD405 nm
[3]
  signal [OD405 nm]: 0.216 OD405 nm
[4]
  signal [OD405 nm]: 0.05 OD405 nm
[5]
  signal [OD405 nm]: 0.035 OD405 nm
[6]
  signal [OD405 nm]: 1.19 OD405 nm
[7]
  signal [OD405 nm]: 1.19 OD405 nm
[8]
  signal [OD405 nm]: 1.22 OD405 nm
[9]
  signal [OD405 nm]: 1.26 OD405 nm
[10]
  signal [OD405 nm]: 1.17 OD405 nm
[11]
  signal [OD405 nm]: 1.22 OD405 nm
[12]
  signal [OD405 nm]: 1.21 OD405 nm
[13]
  signal [OD405 nm]: 1.16 OD405 nm
[14]
  signal [OD405 nm]: 0.048 OD405 nm
[15]
  signal [OD405 nm]: 0.046 OD405 nm
[16]
  signal [OD405 nm]: 0.196 OD405 nm
[17]
  signal [OD405 nm]: 0.045 OD405 nm
[18]
  signal [OD405 nm]: 0.035 OD405 nm
[19]
  signal [OD405 nm]: 0.049 OD405 nm
[20]
  signal [OD405 nm]: 0.042 OD405 nm
[21]
  signal [OD405 nm]: 0.215 OD405 nm
[22]
  signal [OD405 nm]: 0.048 OD405 nm
[23]
  signal [OD405 nm]: 0.035 OD405 nm

B3: anti-PG variant Fc-region antibody M1.7.24 (monomeric, bivalent) (antibody, V domains shown)
VH: EVKLLESGGGLVQPGGSLKLSCAASGFDFSRYWMNWVRQAPGKGLEWIGEITPDSSTINYTPSLKDKFIISRDNAKNTLYLQMIKVRSEDTALYYCVRPYDYGAWFASWGQGTLVTVSA
VL: QAVVTQESALTTSPGETVTLTCRSSTGAVTTSNYANWVQEKPDHLFTGLIGGTNKRAPGVPARFSGSLIGDKAALTITGAQTEDEAIYFCALWYSNHWVFGGGTKLTVL
notes: Full-length Y-shaped antibody with murine variable domains; Biotinylated when used as capture antibody; also called anti-PG antibody clone 1.7.24; M1.7.24-Bi
[1]
  signal [OD405 nm]: 0.05 OD405 nm
[2]
  signal [OD405 nm]: 0.047 OD405 nm
[3]
  signal [OD405 nm]: 3.23 OD405 nm
[4]
  signal [OD405 nm]: 0.098 OD405 nm
[5]
  signal [OD405 nm]: 0.057 OD405 nm
[6]
  signal [OD405 nm]: 0.056 OD405 nm
[7]
  signal [OD405 nm]: 0.058 OD405 nm
[8]
  signal [OD405 nm]: 0.093 OD405 nm
[9]
  signal [OD405 nm]: 0.074 OD405 nm
[10]
  signal [OD405 nm]: 0.085 OD405 nm
[11]
  signal [OD405 nm]: 0.057 OD405 nm
[12]
  signal [OD405 nm]: 0.077 OD405 nm
[13]
  signal [OD405 nm]: 0.094 OD405 nm
[14]
  signal [OD405 nm]: 0.037 OD405 nm
[15]
  signal [OD405 nm]: 0.038 OD405 nm
[16]
  signal [OD405 nm]: 2.98 OD405 nm
[17]
  signal [OD405 nm]: 0.039 OD405 nm
[18]
  signal [OD405 nm]: 0.053 OD405 nm
[19]
  signal [OD405 nm]: 0.043 OD405 nm
[20]
  signal [OD405 nm]: 0.04 OD405 nm
[21]
  signal [OD405 nm]: 3.17 OD405 nm
[22]
  signal [OD405 nm]: 0.064 OD405 nm
[23]
  signal [OD405 nm]: 0.06 OD405 nm
